Laboratory results taken from patent US20140023646A1.

Legend:
[1] = target: KIR receptors on NK cells (all inhibitory KIR2DL receptors); assay: cell-based or functional assay
[2] = target: recombinant KIR 2DL3 protein (entire extracellular domain, produced in E. coli, refolded) (human) (UniProt P43628); assay: SPR (Biacore), KIR 2DL3 immobilized on CM5 chip, soluble antibody as analyte
[3] = target: recombinant KIR 2DL1 protein (entire extracellular domain, produced in E. coli, refolded) (human) (UniProt P43626); assay: SPR (Biacore), KIR 2DL1 immobilized on CM5 chip, soluble antibody as analyte

increased expression of CD107a on NK cells [1] | Kd [2] | Kd [3] | Substance
0.5 to 13.6% | – | – | human anti-KIR monoclonal antibody 1-7F9
– | 2 nM | 10.9 nM | monoclonal antibody DF200 produced by hybridoma DF200
